For experiment [1], the target named is recombinant PCNA (proliferating cell nuclear antigen) (human) (UniProt P12004). The experiment can be described thus: SPR. Background: Surface plasmon resonance follows binding to a sensor surface in real time, without labels.
Experiment [2] deals with recombinant PCNA (proliferating cell nuclear antigen) (human, UniProt P12004 1-261). The experiment can be described thus: SPR.

On to “recombinant human Rac2 (from UniProt P15153 1-192) (natural protein; other documents disagree on this pair)”, for which, in experiment [1], the Kd – broadly, the concentration at which binding is half-saturated – was 3.3 µM; the k (backward) (two-state model, second step) was 0.00066 s⁻¹; the k (forward) (two-state model, second step) was found to be 0.0057 s⁻¹; the ka1 (two-state model, first step) came out at 541 M⁻¹ s⁻¹. Besides, the kd1 (two-state model, first step) in experiment [1] stood at 0.017 s⁻¹.

B1: p47phox PX domain (truncated p47phox, residues 2–132) (domain or fragment)
chain: GDTFIRHIALLGFEKRFVPSQHYVYMFLVKWQDLSEKVVYRRFTEIYEFHKTLKEMFPIEAGAINPENRIIPHLPAPKWFDGQRAAENRQGTLTEYCSTLMSLPTKISRCPHLLDFFKVRPDDLKLPTDNQ
Consider B1, for which, in experiment [2], the Kd was 33 µM and the on-rate constant (kon) (as a rule, the second-order rate constant of association) was 85.2 M⁻¹ s⁻¹.

For the origin of these results see publication PMC6829599 (The Journal of Experimental Medicine, 2019).
